Assay results from US20040101905A1, “Product” (priority 2000, published 2004).

Legend:
[1] = biological target: T1, SC (secretory component, extracellular portion of the poly Ig receptor) (Homo sapiens, UniProt P01833); assay: ELISA of phage binding to immobilised SC; details: for SC binding of single phage clones (ELISA): immobilised colostrum SC
T1 construct: “secretory component”—the extracellular portion of the poly Ig receptor; from tissue; host or cells: human colostrum
Description: Affinity selection: Free SC purified from human colostrum by Jackaline-Sepharose column (Pharmacia Biotech, Uppsala, Sweden) (Brandtzaeg P. Scand. J. Immunol. 1974, 3:579-88) was used. SC was immobilised in Nunc MaxiSorp (Costar) tubes at approximately 30 μg/ml in a volume of 500 μl in each tube at 4° C. ON. The tubes were blocked with 1% BSA or 1% milk powder in PBS for 1 h at RT. Approximately 10^10 TU from each library were pre incubated with PBS and 1% BSA or 1% milk powder (1:1) for 1 h at 4° C. before they were added to the tubes and incubated at RT for 1.5 h. The tubes were washed 6 times with PBS/0.05% Tween 20. Bound phage were eluted by incubation with 500 μl 0.1M HCl-glycine pH 2.2 for 10 min and neutralised with 75 μl 0.1M Tris pH 9.1. Phage were amplified essentially as described by Smith and Scott (Methods Enzymol., 1993, 217:228-257) and two additional rounds of affinity selection were performed.
ELISA assay. The purified colostrum SC was coated at 30 μg/ml in Nunc MaxiSorb wells in PBS at 4° C. ON. The wells were blocked with 200 μl PBS with 1% BSA or 1% milk powder for 1 h at RT. Phage supernatants from amplified eluates or single colonies were diluted 1:1 in blocking buffer, added to the wells and allowed to react with immobilsed SC for 1.5 h at RT. The wells were washed 6 times with PBS/0.05% Tween and bound phage were detected by adding a horse radish peroxidase (HRP)/Anti-M13 IgG conjugate (Pharmacia) 1:4000 in PBS with 1% BSA or 1% milk powder. After incubation for 1 h at RT, washing with PBS/[…] and addition of ABTS substrate solution (ABTS tablets from Boehringer Mannheim in citrate buffer, pH 4.0) the ABTS-HRP reactions were read in a microtiter plate reader set at […] (Dynatech MR 700).

FcγRI receptor = biological target: T2, FcγRI receptor (Homo sapiens, UniProt P12314); assay: Affinity selection of phage displayed peptides on IFN-γ stimulated U937 cells (FcγRI binding)
T2 construct: To increase FcγRI expression the U937-cells were treated with 100 U/ml IFN-γ for 40 hours; endogenous in cells; host or cells: U937 cells stimulated with IFN-γ
Description: (§1) Affinity selection: For affinity selection, […] stimulated U937cells were washed in 20 ml pan-wash buffer (PBS pH7.4, 1% BSA, 1 mMCaCl2, 10 mMMgCl2) and then resuspended in 1 ml pan-wash buffer. Portions (1×10^10 E. coli K91K transducing units (TU)) of each library were added to the cells. Cells and phages were incubated with agitation for 1.5 hours at 4° C. Unbound phages were removed by washing the cells 6 times with 2 ml pan-wash buffer. Bound phages were eluted in 200 μl 0.1M HCl-glycine pH 2.2 for 10 minutes on ice. The eluates were neutralised with 17 μl 1.5M Tris pH 8.8. Phages were amplified (essentially as described in Smith and Scott Methods Enzymol. 1993;217:228-57). A second round of affinity selection was performed using an input of 10^9 phages.
Peptide sequences of affinity selected phage clones: PCR products covering the peptide coding insert were created using the primers fUSE5 for (5′ […] 3′) and fUSE5 (5′[…] 3′). The PCR products were sequenced (GATC/GmBh Germany) using the primer (5′[…] 3′) and the results shown in Table 1.

[2] = tested on: IFN-γ stimulated U937 cells; assay: Phage binding to IFN-γ stimulated U937 cells; format: cell-based, human; details: for % output / Output (number of bound phages): U937-INF-γ, input 5 × 10^7 TU; for Output (number of bound phages): 3×10^6 cells, acid eluate
Description: (§2) Cells: U937 cells (ATCC CRL-1593) and K562 cells (ATCC CCL-243) were maintained in RPMI 1640 medium (Gibco laboratories) supplemented with 10% heat-inactivated FCS (Biological Industries, Beth Haemark), 2 mM L-glutamine, 100 U/ml penicillin (Gibco). Cells-were incubated at 5% CO2 and 37° C. at density ranging from 10^5 to 10^6 cells/ml.
To increase FcγRI expression the U937-cells were treated with 100 U/ml IFN-γ for 40 hours.
as §1
(§3) Cell binding of individual phages: Phage expressing the peptide CLRSGLGC were analysed for binding unstimulated U937 cells, IFN-γ stimulated U937 cells, as well as K562 cells. Both U937 and […]. Whereas INF-γ stimulated U937 cells express an increased number of FcγRI, K562-cells preferentially express FcγRII. 5×10^7 TU of individual phage clones were added to 3×10^6 cells in pan-wash buffer, incubated and eluted as described above.

unstimulated U937 cells = assay: Phage binding to unstimulated U937 cells; format: cell-based, human; details: input 5 × 10^7 TU; for Output (number of bound phages): 3×10^6 cells
Description: as §2, §1, §3

K562 cells = assay: Phage binding to K562 cells; format: cell-based, human; details: input 5 × 10^7 TU; for Output (number of bound phages): 3×10^6 cells
Description: as §2, §1, §3

[3] = biological target: T3, FcFcR (recombinant dimeric soluble human FcγRI) (Homo sapiens, UniProt P12314); assay: Binding of phage displayed peptides to recombinant dimeric FcγRI (FcFcR) immobilised via protein A
T3 construct: the extracelluar part of the human FcγRI genetically fused to human IgG4; made in house; host or cells: mouse myeloma cell line NSO (lysate of transfected cells, not purified)
Description: (§4) Protein A was immobilised in wells at 10 μg/ml in a volume of 200 μl at 4° C. overnight (ON). The wells were blocked with 1% BSA in PBS for 1 h at room temperature (RT). Lysate from FcFcR-transfected and untransfected cells were added to the wells and incubated at RT for 2 h. The wells were washed and new lysate was added zero, one or two times following 2 h incubation at RT. The wells were washed 7 times with PBS/0.5% Tween 20. 200 μl biotinylated human IgG3 in PBS (1 μg/ml) was added to the wells. The wells were washed as above and binding of biotinylated IgG3 was detected with streptavidin and […] (FIG. 2).
(§5) Wells were coated as described above with lysate from FcFcR transfected NSO cells added three times. Phages displaying the peptide CLRSGLGC were added to the wells and incubated at RT for 1.5 h. The wells were washed 8 times with PBS/0.5% Tween 20. Bound phages were eluted by incubation with 200 μl 0.1M HCl-glycine pH 2.2 for 10 min. and neutralised with 17 μl 0.1M Tris pH 8.8. The number of bound phages were determined as E. coli K91K TU's (Table 4).

[4] = Phage binding to control wells (protein A with lysate from untransfected NSO cells; protein A blocked with BSA)
Description: as §4, §5

SC = biological target: T4, SC (Homo sapiens, UniProt P01833); assay: Inhibition assay of SC binding phages; details: phages CWTSGARWRLC and CVVWMGFQQVC pre incubated with competitor
T4 construct: “secretory component”—the extracellular portion of the poly Ig receptor; from tissue; host or cells: human colostrum
Description: Inhibition assay of SC binding phages: Nunc MaxiSorb 96 wells plates were coated with 30 μg/ml of purified colostrum SC at 4° C. ON. The plates were blocked in 1% milk powder for 1 h at RT before adding phage. Phage were pre incubated with […] polymeric IgA (pIgA), pIgM or Streptococcus pneumoniae secretory IgA binding protein (SpsA) in PBS/1% milk powder. SpsA is an streptococcal produced SC binding protein (Hammerschmidt et al. Mol Microbiol 1997 sep 25 (6): 1113-24). After incubation for 1.5 h at RT the plates were washed 6 times before HRP/Anti-M13 conjugate (Pharmacia) 1:4000 in PBS with 1% milk powder was added. 6 times of washing with PBS/0.05% Tween were followed by the ABTS substrate solution. The ABTS-HRP reaction was read in a microtiter plate reader set at 405 nm. All samples were run in duplicates.

T2 sequence (P12314 16-374): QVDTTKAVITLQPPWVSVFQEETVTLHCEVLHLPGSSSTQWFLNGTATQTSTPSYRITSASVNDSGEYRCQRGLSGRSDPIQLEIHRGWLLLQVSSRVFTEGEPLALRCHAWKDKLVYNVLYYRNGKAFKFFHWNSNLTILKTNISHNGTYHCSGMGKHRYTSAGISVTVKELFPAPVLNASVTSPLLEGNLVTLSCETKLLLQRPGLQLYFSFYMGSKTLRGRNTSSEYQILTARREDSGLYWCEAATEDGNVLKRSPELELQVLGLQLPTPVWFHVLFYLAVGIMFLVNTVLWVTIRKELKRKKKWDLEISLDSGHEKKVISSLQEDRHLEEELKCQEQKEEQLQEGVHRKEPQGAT
T3 sequence (P12314 16-292 limits assumed): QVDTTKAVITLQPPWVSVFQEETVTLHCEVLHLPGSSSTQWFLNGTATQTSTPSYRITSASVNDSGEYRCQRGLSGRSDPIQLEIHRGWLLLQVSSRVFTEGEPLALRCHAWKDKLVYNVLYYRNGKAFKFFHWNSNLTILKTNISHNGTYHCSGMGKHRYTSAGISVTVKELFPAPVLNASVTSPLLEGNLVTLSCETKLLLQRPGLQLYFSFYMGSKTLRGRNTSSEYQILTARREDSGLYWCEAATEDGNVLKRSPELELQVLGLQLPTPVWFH
T1 sequence (P01833 19-603 limits assumed): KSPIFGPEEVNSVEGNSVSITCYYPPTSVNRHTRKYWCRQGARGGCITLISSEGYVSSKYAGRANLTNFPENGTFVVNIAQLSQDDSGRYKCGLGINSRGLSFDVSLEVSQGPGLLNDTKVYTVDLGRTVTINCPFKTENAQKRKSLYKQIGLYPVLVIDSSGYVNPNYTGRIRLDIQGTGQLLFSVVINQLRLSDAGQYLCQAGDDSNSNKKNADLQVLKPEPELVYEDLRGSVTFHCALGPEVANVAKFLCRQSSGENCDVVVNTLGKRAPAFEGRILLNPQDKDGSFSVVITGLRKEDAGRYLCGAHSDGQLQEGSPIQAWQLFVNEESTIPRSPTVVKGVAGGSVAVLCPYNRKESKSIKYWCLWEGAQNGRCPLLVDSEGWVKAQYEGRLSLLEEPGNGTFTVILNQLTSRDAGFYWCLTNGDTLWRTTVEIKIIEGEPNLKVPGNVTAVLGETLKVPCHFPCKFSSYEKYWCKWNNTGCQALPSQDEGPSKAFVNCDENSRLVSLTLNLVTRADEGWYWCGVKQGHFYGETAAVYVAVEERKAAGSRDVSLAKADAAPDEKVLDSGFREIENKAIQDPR
T4 sequence (P01833 19-603 limits assumed): as above

## CAWHYRFCGAAHSADGACREVFLVC
[1]
  binding to the poly Ig receptor: shown to bind the poly Ig receptor
  SC binding of single phage clones (ELISA): positive

## CFPVGRATC
FcγRI receptor
  binding to the FcγRI receptor: shown to bind the FcγRI receptor

## CGPGGTVGYTC [CONTROL, control phage displaying an irrelevant insert (…), reference compound]
[2]
  % output: <0.0004%
  Output (number of bound phages): <2 × 10^2 TU
Unstimulated U937 cells
  % output: <0.0004%
  Output (number of bound phages): <2 × 10^2 TU
K562 cells
  % output: <0.0004%
  Output (number of bound phages): <2 × 10^2 TU

## CGRVNTWLPQC
FcγRI receptor
  binding to the FcγRI receptor: shown to bind the FcγRI receptor

## CLRSGAGC
FcγRI receptor
  binding to the FcγRI receptor: shown to bind the FcγRI receptor

## CLRSGANC
FcγRI receptor
  binding to the FcγRI receptor: shown to bind the FcγRI receptor

## CLRSGLGC
[2]; IFN-γ stimulated U937 cells
  times more phages eluted compared to the irrelevant control phage: More than 500 times
[2]
  % output: 0.2%
  Output (number of bound phages): 1 × 10^5 TU
[2]; same number of cells
  binding to IFN-γ stimulated U937 cells compared to unstimulated U937 cells and K562 cells: bound significantly better to IFN-γ stimulated U937 cells
Unstimulated U937 cells
  % output: 0.028%
  Output (number of bound phages): 1.4 × 10^4 TU
K562 cells
  % output: 0.02%
  Output (number of bound phages): 1.4 × 10^4 TU
[3]
  binding to wells with immobilised FcFcR compared to wells with no FcR activity: significant better binding
[3]; lysate from FcFcR transfected cells
  % output: 0.3%
[3]; lysate from FcFcR transfected cells, input 2.5 × 10^8
  Output (number of bound phages): 6.8 × 10^5 TU
[4]
  % output: 0.05%
[4]; input 2.5 × 10^8
  Output (number of bound phages): 1.2 × 10^5 TU
FcγRI receptor
  binding to the FcγRI receptor: shown to bind the FcγRI receptor

## CLRSGLHC
FcγRI receptor
  binding to the FcγRI receptor: shown to bind the FcγRI receptor

## CLRSGRAC
FcγRI receptor
  binding to the FcγRI receptor: shown to bind the FcγRI receptor

## CLRSGRGC
FcγRI receptor
  binding to the FcγRI receptor: shown to bind the FcγRI receptor

## CLRSGSGC
FcγRI receptor
  binding to the FcγRI receptor: shown to bind the FcγRI receptor

## CLYGDELC
FcγRI receptor
  binding to the FcγRI receptor: shown to bind the FcγRI receptor

## CQDPICFCGADGACYCTSRNC
[1]
  binding to the poly Ig receptor: shown to bind the poly Ig receptor
  SC binding of single phage clones (ELISA): positive

## CRRATAGCAGC
FcγRI receptor
  binding to the FcγRI receptor: shown to bind the FcγRI receptor

## CRRSGQGC
FcγRI receptor
  binding to the FcγRI receptor: shown to bind the FcγRI receptor

## CRSMVMLRVRC
FcγRI receptor
  binding to the FcγRI receptor: shown to bind the FcγRI receptor

## CSAGRACCRYC
FcγRI receptor
  binding to the FcγRI receptor: shown to bind the FcγRI receptor

## CSWIPGVGLVC
FcγRI receptor
  binding to the FcγRI receptor: shown to bind the FcγRI receptor

## CVVWMGFQQVC
[1]
  binding to the poly Ig receptor: shown to bind the poly Ig receptor
  SC binding of single phage clones (ELISA): SC binding

## CWTSGARWRLC
[1]
  binding to the poly Ig receptor: shown to bind the poly Ig receptor
  SC binding of single phage clones (ELISA): SC binding

## SpsA
SC
  blocking of phage binding to SC: blocked phage from binding to the receptor for both peptides
